In article PMC11542851 (PLOS Pathogens, 2024):

B1: C68.327 (antibody, V domains shown)
VH: EVQLLESGGGLVQPGGSLRLSCAASGFTFGSYAMSWVRQAPGKGLEWVSAISGSGGSTYYADSVKGRFTISRDNSKNTLYLQMNSLRAEDTAVYNCAKDLWDGFHWFDSWGQGTLVTVSS
VL: DIQMTQSPSSVSASVGDRVTITCRASQGISSWLAWYQQKPGKAPNLLIYSASSLQSGVPSRFSGSGSGTDFTLTISSLQPEDFATYYCQQANSFPITFGQGTRLEIK
B2: C68.348 (antibody, V domains shown)
VH: QVQLQESGPRLVKSSGTLSLTCAVSGGSISSSKWWSWVRQPPGKGLEWIGEVYHGGSTNYNPSLKSRVTISVDKAKNQFSLKLSSVTAADSAVYYCASLDSAAVFDYWGQGTLVTVSS
VL: QSALTQPASVSGSPGQSITISCTGTSSDVGRFNYVSWYQQHPGKAPKLLIYDVSNRPSGVSNRFSGSKSGNTASLTISGLQAEDEADYYCNSYTSSSTLYVFGTGTKVTVL
B3: C68.200 (antibody, V domains shown)
VH: EVQLLESGGGLVQPGGSLRLSCTASGFTFSRYALTWVRQAPGKGLEWVSAISGSGGNTNYADSVKGRFTISRDNSKNTLYLQMNSLRAEDTAVYYCAKSPRYNNDYFDFWGQGTLVTVSS
VL: DIQLTQSPSTLSASVGDRVTITCRASQSISSWLAWYQQKPGKAPKLLIYDASSLESGVPSRFSGSGSGTEFTLTISSLQPDDFATYYCQQYNTFITFGHGTRLEIK
B4: C68.203 (antibody, V domains shown)
VH: EVQLLESGGGLVQPGGSLRLSCTASGFTFSRYALTWVRQAPGKGLECVSAFSGSGDSTYYADSVKGRFTISRDNSKNTLYLQMNSLRAEDTAVYYCAKSPRYNSDYFDFWGQGTLVTVSS
VL: DIQLTQSPSTLSASVGDRVTITCRASQSISSWLAWYQQKPGKAPKLLIYDASSLESGVPSRFSGSGSGTEFTLTISSLQPDDFATYYCQQYNSFITFGQGTRLEIK
B5: C68.175 (antibody, V domains shown)
VH: EVQLLESGGGLVQPGGSLRLSCAASGFTFSSYAMSWVRQAPGKGLEWVSGISGSGGSTYYADSVKGRFTISRDNSKNTLHLQMNSLRAEDTAVYYCAKGSRWNPDYFDYWGQGTLVTVSS
VL: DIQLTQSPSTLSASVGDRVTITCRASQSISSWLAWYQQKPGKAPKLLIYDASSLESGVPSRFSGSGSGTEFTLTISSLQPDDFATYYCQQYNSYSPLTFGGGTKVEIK
B6: C68.183 (antibody, V domains shown)
VH: EVQLLESGGGLVQPGGSLRLSCVASGFTFRNFAMSWVRQAPGKGLEWVSAISGSGDSTYYADSVKGRFTISRDNSKNTLYLQVNSLRVEDTAIYYCAKGSRGSTDYFDSWGQGTLVTVSS
VL: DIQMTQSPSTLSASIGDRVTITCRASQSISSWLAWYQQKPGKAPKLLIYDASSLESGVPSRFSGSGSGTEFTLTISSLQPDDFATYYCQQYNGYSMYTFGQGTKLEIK
B7: C68.239 (antibody, V domains shown)
VH: EVQLLESGGGLVQPGGSLRLSCAASGFTFSSYAMSWVRQAPGKGLEWVSAISGGGDNTYYADSVKGRFTISRDNSKNTLYLQMNSLRAEDTAVYFCAKNPITVVPAAWDRGYFDLWGRGTLVTVSS
VL: SYELTQPPSVSVAPRKTARITCGGNNIGSYSVHWYQQRPGQAPVLVVHDDSDRPSGIPERFSGSNSGNTATLTISRVEAGDEADYYCQVWDSSSDHRGVFGGGTKLTVL
B8: C68.88 (antibody, V domains shown)
VH: QVQLQESGPGLVKPSETLSLTCSVSGGPISSSRYYWGWIRQSPGEGLEWIGTIYYSGSTYYNPSFKSRVTISVDTSKNQFSLKLSSVTAADTAVYYCATRCYDFWSGYYNREMLWFDCWGQGTLVTVSS
VL: NFMLTQPHSVSESPGKTVTISCTRSSGSIASNYVQWYQQRPGSSPTTVIYENNQTPSGVPDRFSGSIDSSSNSASLTISGLKTEDEADYYCQSYDSSVVVFGGGTKLTVL
B9: C68.121 (antibody, V domains shown)
VH: EVQLVESGGGLVKPGGSLRLSCAASGFTFSDYYMTWIRQAPGKGLEWVSKITNSNSYTHYADSVKGRFTISRDNAKNSLFLHMNSLRAEDTAVYYCARAIWIGYPDDYYMDVWGKGTTVTVSS
VL: SYELTQPPSVSVSPGQTARITCSGDTLPNQYVYWYQQKPGQAPVLLIYKDTERPSGIPERVSGSTSGTTVTLTISGVQAEDEADYYCQSADSSGTSFGGGTKLTVL
B10: C68.185 (antibody, V domains shown)
VH: QVQLVQSGAEVKKPGASVKVSCKTSGYAFTDHYVHWVRQAPGQGLEWMGVINPSGVGTSYAQMFQDRVTLTSDTSTSTVYMVLSSLRSEDTAVYYCVRDDYGVPARGWFDPWGQGTLVTVSS
VL: EVVLTQSPATLSLSPGERATLSCRASQSISSYLAWYQQKPGQAPRLLIYDASNRATGVPARFSGSGSGADFTLTISSLEAEDFALYYCQHRSNWLYTFGQGTKLEIK
B11: C68.83 (antibody, V domains shown)
VH: EVQLVESGGGVVQPGRSLRLSCAASGFIFSSYGMHWVRQAPGKGLEWVAVIWYDGSNKYYADSVKGRFTISRDNSKNTLYLQMNSLRAEDTAVYYCARDDPEVGCSGGSCYYYYDMDVWGQGTTVTVSS
VL: SYELTQPPSVSVSPGQTARITCSGDALPKQHAHWYQQKPGQAPVLVIYKDIERPSGIPERFSGSSSGTTVTLTISGVQAEDEADYYCQSADSSVTYVVFGGGTKLTVL

Biological target: T1, SARS-CoV-2 Wuhan-Hu-1 recombinant spike protein (trimer) (SARS-CoV-2 Wuhan-Hu-1, UniProt P0DTC2)
T1 construct: source: bought: Sino Biologics
Assay: ELISA
Conditions: both partners purified

| Binder | binding result |
| --- | --- |
| B1 | binds |
| B2 | binds |
| B3 | binds |
| B4 | binds |
| B5 | binds |
| B6 | binds |
| B7 | binds |
| B8 | binds |
| B9 | binds |
| B10 | binds |
| B11 | binds |
